Laboratory results reported in paper PMC5346689.
Values belong to the substance of their own block, whether it stands above or below them.

Columns and labels:
Experiment in all cases: SEC; HiLoad 26/60 Superdex 75 prep grade column; buffer B (20 mM MES, 50 mM NaCl, 10 mM CaCl2, pH 7.0); oligomeric state of each purified S100A4 protein in solution
[1] = target: S100A4 C-terminal Ca2+ binding site mutant N65I/D67A (UniProt P26447)
[2] = target: S100A4 N-terminal Ca2+-binding site mutant E23A/D25A (UniProt P26447)
[3] = target: recombinant wild-type S100A4 (UniProt P26447)

stoichiometry N [1]: 2
Substance: S100A4 C-terminal Ca2+ binding site mutant N65I/D67A (from UniProt P26447 1-101) (natural protein)

stoichiometry N [2]: 2
Substance: S100A4 N-terminal Ca2+-binding site mutant E23A/D25A (from UniProt P26447 1-101) (natural protein)

stoichiometry N [3]: 2
Substance: recombinant wild-type S100A4 (from UniProt P26447 1-101) (natural protein)
